Source: a protein production outcome set (Wang et al. 2014)

Assay: label from the status in PepcDB records

For “MTGEKIRSLRRDHKPSKEEGDLLEPGDEEAAAALGGTFTRSRIGKGGKACHKIFSNHHHRLQLKAAPASSNPPGAPALPLHNSSVTANSQSPALLAGTNPVAVVADGGSCPAHYPVHECVFKGDVRRLSSLIRTHNIGQKDNHGNTPLHLAVMLGNKECAHLLLAHNAPVKVKNAQGWSPLAEAISYGDRQMITALLRKLKQQSRESVEEKRPRLLKALKELGDFYLELHWDFQSWVPLLSRILPSDACKIYKQGINIRLDTTLIDFTDMKCQRGDLSFIFNGDAAPSESFVVLDNEQKVYQRIHHEESEMETEEEVDILMSSDIYSATLSTKSISFTRAQTGWLFREDKTERVGNFLADFYLVNGLVLESRKRREHLSEEDILRNKAIMESLSKGGNIMEQNFEPIRRQSLTPPPQNTITWEEYISAENGKAPHLGRELVCKESKKTFKATIAMSQEFPLGIELLLNVLEVVAPFKHFNKLREFVQMKLPPGFPVKLDIPVFPTITATVTFQEFRYDEFDGSIFTIPDDYKEDPSRFPDL”, which protein production is on record?
Its protein production is “failed”.

For “MTGKKTLSIVGASGYAGGEFLRLALSHPYLEVKQVTSRRFAGEPVHFVHPNLRGRTNLKFVPPEKLEPADILVLALPHGVFAREFDRYSALAPVLVDLSADFRLKDPELYRRYYGEHPRPDLLGRFVYAVPELYREALKGADWIAGAGCNATATLLGLYPLLKAGVLKPTPIFVTLLISTSAGGAEASPASHHPERAGSIRVYKPTGHRHTAEVVENLPGRPEVHLTAIATDRVRGILMTAQCFVQDGWSERDVWQAYREAYAGEPFIRLVKQKKGVHRYPDPRFVQGTNYADIGFELEEDTGRLVVMTAIDNLVKGTAGHALQALNVRMGWPETLGLDFPGLHP”, which protein production is on record?
Its protein production is “not failed”.

For “MTGMRKTLKATLAEARAQVEAALKEEGFGILTEIDVAATLKAKLGLEKPPYLILGACNPNLAARALEALPEIGLLLPCNVVLREAEEGVEVLIQDPKEMFRVLPEATQRALAPVAEEARTRLSRALSRL”, which protein production is on record?
The protein production was “not failed”.

For “MTGPTPTEAVDITVSVGGFKVGDQNYPINPKITFTNNTGQAIPGGTEFQFDIPVSAPDNAKDQSGGGLKVIASGHTRANNIGGLDGVMHRVSFSLPAWKDLPAGGTYELDMVYYLPISGPANYSVISGGKEFAFKFEQPDLPIGDLNAGTGGGGTTEPGSCDTAGLVTYPNLPQTDLEHHHHHH”, which protein production is on record?
The protein production was “failed”.

For “MTGRDLMLITGISPIILRFLFGGTAVVASRLVARSFGGRLGGVFAAFPAVYLAAVAGLSMEYEGSELLSVSEQLSRGALVGMSADICCALAASYLILKYGWKTGLSLSLLFWAVLAPVIYFTWF”, which protein production is on record?
The protein production was “failed”.

Which protein production does the source give for “MTGVLTADRPPKPAAPRRYTVALARDEDDVRAAQRLRHDVFAGEMGALLASPQPGHDVDAFDAYCDHLLVREETTGQVVGTYRLLPPERAAVAGRLYAESEFDLAALDPIRSSLVEVGRSCVHPDHRDGAVIGLVWAGIARYMTDRGHAWLAGCCSLPLADGGALAAGAWDRVRTKHLAPEEYRVRPLLPWVPRPAAPAARTELPALLRGYLRLGAWVCGEPAHDVDFGVADLYVLLPMNRVDPRYLRHFLSLAPA” here?
The protein production was “failed”.

Which protein production does the source give for “MTHASILISVIIPAYNAAKFLPDAIASVEKQTFTDWELLIINDGSTDDTIEVVREHQKTSDCIYLINQTNQGVSAARNQGVAHSQGQIIAFLDADDQWLPDKLSQHWQHFQSNSRLGVSFAQVEILDQAGEPTGQVSTSRLNDLKPEYFLSENPTTTTSNWVIRKEVFTQVGGFCLDMSYSEDLEWLLRVSSTTDWQIQGINQVLTRYRTSSSGLSSNLYYMEAGWKQLVNRARIYAPQLVHNHFALAQAVHLRYLARRAFRLKLPARVGVDFITRALISDWRLLFHQPQRTFFTLLAVFGALVMERVFGLNTHRGSTAKAEPFRGSIP” here?
Its protein production is “failed”.

With “MTHPATVYSLSTRLLHWSMAFCFIGAIVLAYFVIWVLGHDHPQRLPVLNLHWVLGLLVGLLLVPRIVSRLRGPRLPAVPGTPLEHRLAHYAHLSLYALMLVMPLTGYVGTRLPTDFGLFVVPSFKDTALFAWISQTLNLSWEAFEKPFDAVHRVVGLWLSTSVVLLHALAAGYHQWVRRDGTLERMLGRRQRR” as the sequence, how does the protein production read?
The protein production was “failed”.

For “MTHTITIVGLGNYGIDELPLGIYRFLEKESKVYARTLNHPVINTLKKEIEFESFDSIYEAHDRFEDVYEAIVTSLIELAQSEDIVYAVPGHPRVAETTTVKLLEYSHFNKDISVKVLGGKSFIDDIFEAVDVDPNDGFTLLDGTSLKESALNVRTNTVITQVYSVMIAADLKLTLMERYPDDFNVKIITGSHSDGAHVIECPLYEIDRYDDYFNNLTSLFIPKINEDTLLYQDFDYAVQTIDLLVDNEKGCPWDKVQTHDSLKRYLLEETFELFEAIDNEDDWHMIEELGDILLQVLLHSSIGKKEGYIDIKEIIESLNTKMIHRHPHIFGNAHVTSQEDLKDIWSRAKEKEGKVPRVKFEKVFADHFLKLYDKTKNRQFDEDDLKQFLQQGEKNS”, which protein production is on record?
Its protein production is “failed”.

For “MTIFVLSSLLAILLAVAIYNSEPSSYAHRSPTYGIGYVFVYIIAAFLFSFVIIYLGRKKKLRIFKVIYSIVVAYVIFYVFLILLSIFLYNVYAIFTVSIVVAIVFFYMILFRNEWYVTDLAGFFLSVGISSIWGITFGVWAAVAFLIAFEIYDYIAVYKTRHMISLARYAVDSDLPMLFVLPENSGFTMRGLSFDNRGDGNVLMIGFGDIALPSIMVVSSAIYGISHILFFTVLPLAGGLIGMAVLYFWNRDRPAPGLPYINTGTIAGFLIAFLAFRVF”, which protein production is on record?
Its protein production is “failed”.

Which protein production does the source give for “MTIFYYSFIILALLACLTVSFRIKKQQYLILYLFVIVLLSLLAGLRYDNADYENYLEIFKNPWEVSPDKGFSAFVLIVRWFTTSPIYMFLPVAIIAVSLNISSYRKYSPYLFVSVLFYFVHSFLLKEYVQIRAGLSCAICLYAIRYIEYKSLWKYIACMVIAMSIHMSSIIFFPMFWVYYFMKNKSNSCLMYFLLLSFIIGTLYPFGQVIKAYVPFLDETSRIATYANWDQFNNEIGILTNFTTLKQIILCVLCYIYWTRLKEVISCFSVLYLAYVLSTCWLMLFNDFVIIGARMATFLSVGEPIFFAGFLCLFNKQSRILVTLFFIIISCIIMDVNLHTKNLGEFKLYPLTSLF” here?
Its protein production is “failed”.

Which protein production does the source give for “MTIGPLALVISLSQQMCVYLVVAYLLSKTPLFIPLVHVTIRLPHKAACYAIFSLFCIMGTYFGLRIDDSIANTRAIGAVLGGMLGGPSVGLAVGLTGGLHRYSMGGFTALACAISTTAEGLIGGLVHRYLVSRGQTGKLFQPLVVGLVTLFAEVCQMLIIILVARPAVNAVHLVETIALPMLVANSVGAAMFMTILLDRRTMFETQSSVFSAKALKIAARAEGALRSGFNRENSMRVARIIYEETGVGAVAITDRDKILAFIGIGDDHHKPGMAVTSLQTLESIRENRVMYADGNEVAYQCSISPTCPLGAALVIPLVDEGEQVIGTIKLYEPKTRLFSTINRTLGEGVARLLSTQILAGRYEQQRQLLAQSEIKLLHAQVNPHFLFNALNTLSAVIRLDPDHARHLVQSLSTFFRKNLKRTSEQVTLNDEVEQVSAYLEIELARFGDRLSVDFNVPADLGTATLPTFSLQPLVENAIKHGTAQLLGDGRIGVSAERQGGDLVVRVEDNAGLYERRPGGDGLGMNLVDRRIRARYGQGYGLSVECERDVVTRVILRVPFDPSPAGVASPAFEKVGP” here?
The protein production was “failed”.

Which protein production does the source give for “MTIHWCGTGLSAIPGLRRLIEAGHALTVWNRTVEKARAELGDLTDDIRAFDIDALGAVLAKGDVVVSMLPGDWHVPLAELAIAKGTHFVSSSYIAPEMRALDERAREAGVSLVNEIGLDPGIDHLMAHELVADYRASDAFDAQNHLSFISYCGGIPKHPNPFRYKFSWSPLGVLKALRSPSRSIRDYAPLDVARPWDAISSYTAPLPTPESFEVYPNRDSLPFMGQYHFKEHWPVKEFVRGTLRLNGWADAWGDVFREIETLSGPEGDARLKEMSDQFWAENAYDQGEPDRVVLCVGLKAEKDGREVWHKSYVMDAWGDARGTAMARLVSIPVSLAVEAVLNREIPAGVHAASSDPKLLARWMAEVATLAQHLQIVDHTA” here?
Its protein production is “failed”.

For “MTIKEFIKKSRLKTWDVIIIAILVLGSFLPLVVFAMQNRGQEAATYQAVLKVDNKVIKVFDLKKDGPHYTYKYEAKDGDYNLIEVDGDRIRVKEANCADLVDVRRGWISKPGETPIACLPHNLFITVEASDGSEDGSLIY”, which protein production is on record?
Its protein production is “failed”.

Which protein production does the source give for “MTIKGRAFPEGFLWGGAVAAHQLEGGYKEGGKGLSTADIMTLGTNERPREITDGVVAGKYYPNHQAIDFYHRYPEDIELFAEMGFKCFRTSIAWTRIFPNGDESEPNEAGLQFYDDLFDECLKNGIQPVVTLAHFEMPYHLVKQYGGWRNRKLIQFYLNFAKVCFERYRDKVTYWMTFNEINNQTNFESDGAMLTDSGIIHQPGENRERWMYQAAHYELVASAAAVQLGHQINPDFQIGCMIAMCPIYPLTAAPADVLFAQRAMQTRFYFADVHCNGTYPQWLRNRFESEHFNLDITAEDLKILQAGTVDYIGFSYYMSFTVKDTGKLAYNEEHDLVKNPYVKASDWGWQVDPVGLRYAMNWFTDRYHLPLFIVENGLGAIDKKTADNQIHDDYRIDYLTDHLRQIKLAVLEDGVDLIGYTPWGCIDLVAASTGQMSKRYGFIYVDENDDGSGSLKRYKKDSFTWFQHVIATNGAEIE” here?
The protein production was “not failed”.

For “MTIKRIFCDMDGTLLNSEGQVSKSNATLIREAAIPVTLVSARAPMEMKDAVDALQLGGVQVAFNGGLIYRIGDNNQVLPIHTQIIKKSTVKQLLRGIRFHFPQVSLSYYDLNNWYCDKIDEGIRYEHSLTQQCPTFIHNEDQFLEGHTNTFKIMMITFDEANMLELEKYLQSLELPEITIQRSGKAYLEITHLLAKKSKGIAYILQKEQLAREETAAFGDGHNDLPMLEMVGYPIVMDNAFDDIKAIAYQLTKSNDEDGVGYGIQKFLK”, which protein production is on record?
Its protein production is “failed”.

Which protein production does the source give for “MTIKSDKWIRRMAQEHGMIEPFVERQVRGADDSRVISYGVSSYGYDVRCAAEFKVFTNIHSAVVDPKNFDEKSFVDINSDVCIIPPNSFALARTVEYFRIPRDVLTICLGKSTYARCGIIVNVTPLEPEWEGHVTLEFSNTTNLPAKIYANEGVAQMLFLQSDEACEVSYKDRGGKYQGQR” here?
The protein production was “not failed”.

For “MTINPRDYDLDELRKMARQRGNGMGDEDVPDPTDLDMGLDDADEEVLAGSSFRSGLYRELLPFLSGDAQEKPYLEALPETYAAEFVVFEWLEFLLMHSGYKGADEALDYYRSIDWLTEDVQDDLSDYLLGIDESATNDDNELSVDDHMLSLVYIAKLTAMT”, which protein production is on record?
The protein production was “failed”.

Which protein production does the source give for “MTIQQWLFSFKGRIGRRDFWIWIGLWFAGMLVLFSLAGKNLLDIQTAAFCLVCLLWPTAAVTVKRLHDRGRSGAWAFLMIVAWMLLAGNWAILPGVWQWAVGRFVPTLILVMMLIDLGAFVGTQGENKYGKDTQDVKYKADNKSSN” here?
The protein production was “failed”.

With “MTIRRLTPTPRAVDWGLFGAVATLLATGVATIFAGIPSSAWIIDLHALSGVVLTLLLPVKLRRVFHRVAPSRLTGTRVLSVGLAAVTLGALGTGVWWIFGGTLDLGPWGLFHLHVALGLLVPPLLLVHLRARFYSPAQATCGGRRDVLRYAGLVTAGALLWRVQGPVNDALDTAGADRRYTGSREEGTDDGNRFPVTSWVADDPDPVDAADWSLSVAGRVAHEASYVAGDLSPDATESAVLDCTSGWYSGHEWQGVRVGDLLDAADPDDAAAWVQFRSITGYRWSLPLSEARDAVLATHVDGERLAHGHGYPLRLVAPGRRGFQWVKWVESVRVSKRRELGEWLAIFVSGL” as the sequence, how does the protein production read?
The protein production was “failed”.

Which protein production does the source give for “MTISADPDRDWKNRISAQALRQIQELDLALDPNSFELWYTFFSGRHKALTEAVNALLAATGRPSAGDISGLYEQFLYPTKAVTRIHAIGALVHSQSNALIDVIEEASDATHGYETRLSSAAPRLALGRMEDGLQTIVDELLTWTMDIQTANAVLVDRLRSAADQVRKLQDQLDQVRLESMTDPLTEVGNRKYFENQLSLHVASDDSGPLALLIVDLDNFKQFNDRHGHVVGDDVLRLAASTIKHNCRRDDVVCRYGGDEFAIILPRTPLREALLLGEAIRAAIAARELHRRSTHESLGRLLISIGAAEFRPGETADDFVERADHWMYAAKQARRDRTRPGPDAAARDPGERRPDILWHETYACGEPTIDAQHRELFDLANVILGPEIEMLEPARLSELVELLLTRVAEHFQYEQAVLEASGYDECGLHRMEHDHLLIRARQVSEAVVSGHQSLGELRAFLVNSVILGHMLKDDRRFFPLFDRQASSATQSGAAPVHRERRRLSL” here?
The protein production was “failed”.
